# Experimental data reported in the Immune Epitope Database (IEDB).
# Experiments:
# HLA-A*01:01 [1] = experiment: IEDB peptide-MHC binding, purified MHC/direct/fluorescence; filed as Kd, often an IC50 or EC50 that approximates it; ≥ and ≤ were set here for values at or beyond the usual limits of such assays
# HLA-A*02:01 [2] = experiment: as above
# HLA-A*11:01 [3] = experiment: as above
# HLA-A*31:01 [4] = experiment: as above
# HLA-A*69:01 = experiment: as above; details: source organism: Mycobacterium tuberculosis
# HLA-B*08:01 [5] = experiment: as above
# HLA-B*08:02 = experiment: as above
# HLA-B*08:03 = experiment: as above
# HLA-B*15:01 = experiment: as above
# HLA-B*15:17 = experiment: as above
# HLA-B*18:01 [6] = experiment: as above
# HLA-B*27:05 = experiment: as above
# HLA-B*40:01 = experiment: as above
# HLA-B*46:01 = experiment: as above
# HLA-B*48:01 = experiment: as above
# HLA-B*57:01 = experiment: as above
# HLA-B*58:01 [7] = experiment: as above
# HLA-A*02:06 = experiment: IEDB peptide-MHC binding, purified MHC/competitive/fluorescence; filed as Kd, often an IC50 or EC50 that approximates it; ≥ and ≤ were set here for values at or beyond the usual limits of such assays; details: source organism: Mycobacterium tuberculosis variant bovis BCG str. Pasteur 1173P2
# HLA-A*26:01 [8] = experiment: as above; details: source organism: Mycobacterium tuberculosis variant bovis BCG str. Pasteur 1173P2
# HLA-A*26:02 = experiment: as above; details: source organism: Mycobacterium tuberculosis variant bovis BCG str. Pasteur 1173P2
# HLA-A*26:03 [9] = experiment: as above; details: source organism: Mycobacterium tuberculosis variant bovis BCG str. Pasteur 1173P2
# HLA-A*68:02 [10] = experiment: as above; details: source organism: Mycobacterium tuberculosis variant bovis BCG str. Pasteur 1173P2
# HLA-B*07:02 [11] = experiment: as above; details: source organism: Mycobacterium tuberculosis variant bovis BCG str. Pasteur 1173P2
# HLA-A*03:01 [12] = experiment: IEDB peptide-MHC binding, purified MHC/direct/fluorescence; filed as Kd, often an IC50 or EC50 that approximates it; ≥ and ≤ were set here for values at or beyond the usual limits of such assays; details: source organism: Yersinia pestis
# HLA-A*26:01 [13] = experiment: as above; details: source organism: Yersinia enterocolitica subsp. enterocolitica 8081
# HLA-A*26:03 [14] = experiment: as above; details: source organism: Yersinia enterocolitica subsp. enterocolitica 8081
# HLA-A*68:02 [15] = experiment: as above; details: source organism: Yersinia pestis
# HLA-B*07:02 [16] = experiment: as above; details: source organism: Yersinia pestis
# HLA-A*01:01 [17] = experiment: IEDB peptide-MHC binding, purified MHC/competitive/fluorescence; ≥ and ≤ were set here for values at or beyond the usual limits of such assays
# HLA-A*02:01 [18] = experiment: as above
# HLA-A*03:01 [19] = experiment: as above
# HLA-A*11:01 [20] = experiment: as above
# HLA-A*24:02 = experiment: as above
# HLA-A*25:01 = experiment: as above
# HLA-A*29:02 = experiment: as above
# HLA-A*31:01 [21] = experiment: as above
# HLA-A*68:02 [22] = experiment: as above
# HLA-B*07:02 [23] = experiment: as above
# HLA-B*08:01 [24] = experiment: as above
# HLA-B*14:02 = experiment: as above
# HLA-B*18:01 [25] = experiment: as above
# HLA-B*35:01 = experiment: as above
# HLA-B*37:01 = experiment: as above
# HLA-B*40:02 = experiment: as above
# HLA-B*44:03 = experiment: as above
# HLA-B*51:01 = experiment: as above
# HLA-B*53:01 = experiment: as above
# HLA-B*58:01 [26] = experiment: as above
# HLA-C*14:02 = experiment: IEDB peptide-MHC binding, purified MHC/direct/fluorescence; filed as Kd, often an IC50 or EC50 that approximates it; ≥ and ≤ were set here for values at or beyond the usual limits of such assays; details: source organism: Homo sapiens
# [27] = source organism: Mycobacterium tuberculosis
# [28] = source organism: Mycobacterium tuberculosis str. Haarlem
# [29] = source organism: Yersinia pestis
# [30] = source organism: Yersinia enterocolitica subsp. enterocolitica 8081
# [31] = source organism: Tarsius lariang
sequence,measurement,setting,value
AVFDSFVER,Kd,HLA-A*01:01 [1]; [27],≥ 20 µM
same,Kd,HLA-A*02:01 [2]; [27],≥ 20 µM
same,Kd,HLA-A*11:01 [3]; [27],0.009 µM
same,Kd,HLA-A*31:01 [4]; [27],0.004 µM
same,Kd,HLA-A*69:01,≥ 20 µM
same,Kd,HLA-B*08:01 [5]; [28],≥ 20 µM
same,Kd,HLA-B*08:02; [28],≥ 20 µM
same,Kd,HLA-B*08:03; [28],≥ 20 µM
same,Kd,HLA-B*15:01; [27],≥ 20 µM
same,Kd,HLA-B*15:17; [27],≥ 20 µM
same,Kd,HLA-B*18:01 [6]; [27],≥ 20 µM
same,Kd,HLA-B*27:05; [27],≥ 20 µM
same,Kd,HLA-B*40:01; [27],≥ 20 µM
same,Kd,HLA-B*46:01; [27],≥ 20 µM
same,Kd,HLA-B*48:01; [27],≥ 20 µM
same,Kd,HLA-B*57:01; [27],≥ 20 µM
same,Kd,HLA-B*58:01 [7]; [27],≥ 20 µM
same,Kd,HLA-A*02:06,0.0023 µM
same,Kd,HLA-A*26:01 [8],≥ 20 µM
same,Kd,HLA-A*26:02,≥ 20 µM
same,Kd,HLA-A*26:03 [9],≥ 20 µM
same,Kd,HLA-A*68:02 [10],≥ 20 µM
same,Kd,HLA-B*07:02 [11],≥ 20 µM
SDDQLRLLK,Kd,HLA-A*01:01 [1]; [29],≥ 20 µM
same,Kd,HLA-A*02:01 [2]; [29],≥ 20 µM
same,Kd,HLA-A*03:01 [12],≥ 20 µM
same,Kd,HLA-A*11:01 [3]; [29],0.407 µM
same,Kd,HLA-A*26:01 [13],≥ 20 µM
same,Kd,HLA-A*26:03 [14],≥ 20 µM
same,Kd,HLA-A*31:01 [4]; [29],≥ 20 µM
same,Kd,HLA-A*68:02 [15],≥ 20 µM
same,Kd,HLA-B*07:02 [16],≥ 20 µM
same,Kd,HLA-B*08:01 [5]; [30],≥ 20 µM
same,Kd,HLA-B*08:02; [30],≥ 20 µM
same,Kd,HLA-B*08:03; [30],≥ 20 µM
same,Kd,HLA-B*15:01; [29],≥ 20 µM
same,Kd,HLA-B*15:17; [29],≥ 20 µM
same,Kd,HLA-B*18:01 [6]; [29],≥ 20 µM
same,Kd,HLA-B*27:05; [29],≥ 20 µM
same,Kd,HLA-B*40:01; [29],≥ 20 µM
same,Kd,HLA-B*46:01; [29],≥ 20 µM
same,Kd,HLA-B*48:01; [29],≥ 20 µM
same,Kd,HLA-B*57:01; [29],≥ 20 µM
same,Kd,HLA-B*58:01 [7]; [29],≥ 20 µM
SYMMDDLELI,IC50,HLA-A*01:01 [17]; source organism: Homo sapiens,≥ 20 µM
same,IC50,HLA-A*02:01 [18]; source organism: Homo sapiens,0.131 µM
same,IC50,HLA-A*03:01 [19]; source organism: Homo sapiens,≥ 20 µM
same,IC50,HLA-A*11:01 [20]; source organism: Homo sapiens,≥ 20 µM
same,IC50,HLA-A*24:02; source organism: Homo sapiens,0.0113 µM
same,IC50,HLA-A*25:01; source organism: Homo sapiens,≥ 20 µM
same,IC50,HLA-A*29:02; source organism: Homo sapiens,0.824 µM
same,IC50,HLA-A*31:01 [21]; source organism: Homo sapiens,≥ 20 µM
same,IC50,HLA-A*68:02 [22]; source organism: Homo sapiens,0.777 µM
same,IC50,HLA-B*07:02 [23]; source organism: Homo sapiens,≥ 20 µM
same,IC50,HLA-B*08:01 [24]; source organism: Homo sapiens,≥ 20 µM
same,IC50,HLA-B*14:02; source organism: Homo sapiens,≥ 20 µM
same,IC50,HLA-B*18:01 [25]; source organism: Homo sapiens,≥ 20 µM
same,IC50,HLA-B*35:01; source organism: Homo sapiens,≥ 20 µM
same,IC50,HLA-B*37:01; source organism: Homo sapiens,≥ 20 µM
same,IC50,HLA-B*40:02; source organism: Homo sapiens,≥ 20 µM
same,IC50,HLA-B*44:03; source organism: Homo sapiens,≥ 20 µM
same,IC50,HLA-B*51:01; source organism: Homo sapiens,≥ 20 µM
same,IC50,HLA-B*53:01; source organism: Homo sapiens,≥ 20 µM
same,IC50,HLA-B*58:01 [26]; source organism: Homo sapiens,≥ 20 µM
same,Kd,HLA-C*14:02,0.575 µM
TEAEKWPFF,IC50,HLA-A*01:01 [17]; [31],≥ 20 µM
same,IC50,HLA-A*02:01 [18]; [31],≥ 20 µM
same,IC50,HLA-A*03:01 [19]; [31],≥ 20 µM
same,IC50,HLA-A*11:01 [20]; [31],≥ 20 µM
same,IC50,HLA-A*24:02; [31],0.57 µM
same,IC50,HLA-A*25:01; [31],≥ 20 µM
same,IC50,HLA-A*29:02; [31],≥ 20 µM
same,IC50,HLA-A*31:01 [21]; [31],≥ 20 µM
same,IC50,HLA-A*68:02 [22]; [31],≥ 20 µM
same,IC50,HLA-B*07:02 [23]; [31],≥ 20 µM
same,IC50,HLA-B*08:01 [24]; [31],≥ 20 µM
same,IC50,HLA-B*14:02; [31],≥ 20 µM
same,IC50,HLA-B*18:01 [25]; [31],0.0432 µM
same,IC50,HLA-B*35:01; [31],≥ 20 µM
same,IC50,HLA-B*37:01; [31],0.394 µM
same,IC50,HLA-B*40:02; [31],0.0405 µM
same,IC50,HLA-B*44:03; [31],≥ 20 µM
same,IC50,HLA-B*51:01; [31],≥ 20 µM
same,IC50,HLA-B*53:01; [31],≥ 20 µM
same,IC50,HLA-B*58:01 [26]; [31],≥ 20 µM
